In patent US20110077250, “COMPOUNDS FOR MODULATING RNA BINDING PROTEINS AND USES THEREFOR” (published 2011):

Target: T1, MEX-5 (UniProt Q9XUB2 Q9XUB2:236-350)
T1 sequence: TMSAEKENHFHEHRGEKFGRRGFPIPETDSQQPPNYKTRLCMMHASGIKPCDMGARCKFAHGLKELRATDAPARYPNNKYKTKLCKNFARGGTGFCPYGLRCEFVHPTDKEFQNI
Assay: FP; 120 nM protein, 2 nM RNA, 100 uM zinc acetate, 20-50 mM Tris pH 8.0, 40-100 mM NaCl, tRNA; Z-value 0.8-0.9; also by gel shift; small-molecule inhibition of complex measured
Conditions: tags: N-terminal MBP fusion (pMal-c, NEB); HTS paragraph says C-terminal fusion to MBP; from Open Biosystems ORFeome clone; label: 3'-fluorescein (FITC)

B1: TCR2 RNA (ssRNA)
RNA: UUUCUUUAUAACUUGUUACAAUUUUUGAAA
  binding result: binds
